Paper PMC7525159

Molecular target: T1, RegX3 (K204A) K204A (UniProt P9WGL9)
T1 sequence: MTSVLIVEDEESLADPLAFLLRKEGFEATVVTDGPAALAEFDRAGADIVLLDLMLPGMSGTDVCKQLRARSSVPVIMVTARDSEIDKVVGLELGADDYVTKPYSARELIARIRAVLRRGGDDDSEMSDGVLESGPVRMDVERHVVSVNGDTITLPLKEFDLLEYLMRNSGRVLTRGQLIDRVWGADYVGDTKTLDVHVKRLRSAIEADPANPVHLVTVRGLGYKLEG
Test: EMSA

**Q.** “CAGCTTTCTTTGCGCTAATTTAGGCGTACTCACAGCATGGGATGACCTGGGCAAATACCTCATCTATCCGCCCGGGATAGCATGCGGCGCAGGCGGCGAATGCGGCGCAGATGAACGCAGAGTTAATTCTCACGCAACGGTCCGATATTG (double strand) [whiB3 promoter -307 to -157 (WT)]” was tested. Which binding did it give?
**A.** The binding was “no binding”.
